# B1: UC961 (ATX-P-453) (antibody, V domains shown)
# VH: QVQLQESGPGLVKPSQTLSLTCTVSGYAFTAYNIHWVRQAPGQGLEWMGSFDPYDGGSSYNQKFKDRLTISKDTSKNQVVLTMTNMDPVDTATYYCARGWYYFDYWGHGTLVTVSS
# VL: DIVMTQTPLSLPVTPGEPASISCRASKSISKYLAWYQQKPGQAPRLLIYSGSTLQSGIPPRFSGSGYGTDFTLTINNIESEDAAYYFCQQHDESPYTFGEGTKVEIK
# B2: ATX-P-875 (antibody, human IgG1, kappa, V domains shown)
# VH: not shown
# VL: DIQMTQSPSSLSASVGDRVTITCRASQSISSYLNWYQQKPGKAPKLLIYAASSLQSGVPSRFSGSGSGTDFTLTISSLQPEDFATYYCQQYDNLPITFGQGTRLEIKR
# notes: also called mAb A
# B3: ATX-P-885 (antibody, human IgG1, kappa, V domains shown)
# VH: QVQLQQWGAGLLKPSETLSLTCAVYGGSFSGYYWSWIRQPPGKGLEWIGEINHSGSTNYNPSLKSRVTISVDTSKNQFSLKLSSVTAADTAVYYCAREGVYEDYWGQGTLVTVSS
# VL: EIVLTQSPATLSLSPGERATLSCRASQSVSNYLAWYQQKPGQAPRLLIYDAYNRATGIPARFSGSGSGTDFTLTISSLEPEDFAVYYCQQRSNWPLTFGQGTRLEIKR
# notes: also called mAb B
# B4: 4A5 (antibody, V domains shown)
# VH: EVKLVESGGGLVKPGGSLKLSCAASGFTFSSYAMSWVRQIPEKRLEWVASISRGGTTYYPDSVKGRFTISRDNVRNILYLQMSSLRSEDTAMYYCGRYDYDGYYAMDYWGQGTSVTVSS
# VL: DIKMTQSPSSMYASLGERVTITCKASPDINSYLSWFQQKPGKSPKTLIYRANRLVDGVPSRFSGGGSGQDYSLTINSLEYEDMGIYYCLQYDEFPYTFGGGTKLEMK
# Key:
# [1] = molecular target: T1, human ROR-1 endogenously expressed on JeKo-1 and MDA-MB-468 cells (human, UniProt Q01973 30-937); test: cell-based or functional assay
# [2] = molecular target: T2, Hu/Cy/Rh ROR1 - His (human/cynomolgus/rhesus (Hu/Cy/Rh), UniProt Q01973 30-403, limits assumed); test: SPR, binding to purified His-tagged protein
# T2 construct: Purified His-tagged protein; also called human/cyno/rhesus ROR-1; not shown: His tag
# [3] = molecular target: T1, human ROR-1 endogenously expressed on …; test: flow cytometry, antibody titration on ROR-1 positive JeKo-1 cells, secondary antibody staining, Net MFI [left panel]
# [4] = molecular target: T1, human ROR-1 endogenously expressed on …; test: flow cytometry, antibody titration on ROR-1 positive JeKo-1 cells, secondary antibody staining, Net MFI [right panel]
# Excerpt: FIG. 27 illustrates a measurement of cell binding saturation data for the anti-ROR-1 antibodies generated by the methods described herein. […] Cells were washed, stained with secondary antibody and cell binding saturation was detected by flow cytometry and reported as mean fluorescent intensity (MFI).
# A cell binding saturation assay was developed to evaluate how well the anti_ROR-1 antibodies developed in Example 28 bound to endogenously expressed extracellular ROR-1 protein on cell lines. […] Briefly, two ROR-1 positive cell lines, JeKo-1 and MDA-MB-468, were incubated in a titration series concentration of each antibody construct. Cells were then washed and subjected to secondary antibody staining and detection by flow cytometry. Mean fluorescence (MFI) was determined by analysis on cytometer software. […] (See FIG. 27).
# [5] = molecular target: T1, human ROR-1 endogenously expressed on …; test: cellular binning by flow cytometry on MDA-MB-468 cells; antibody titrated, stained with labelled secondary antibody, % Top MFI [29C left panel]
# Protocol: (§1) Next, the anti-ROR-1 antibodies were fluorescently labeled with a secondary antibody.
# (§2) In Step 2, a fluorescently labeled secondary antibody recognizing the novel antibodies was incubated with the samples.
# [6] = molecular target: T1, human ROR-1 endogenously expressed on …; test: cellular binning by flow cytometry on MDA-MB-468 cells; antibody titrated, stained with labelled secondary antibody, % Top MFI [29D left panel]
# Protocol: as §1, §2
# [7] = molecular target: T1, human ROR-1 endogenously expressed on …; test: cellular binning by flow cytometry on MDA-MB-468 cells; ATX-P-875 titrated first, then a saturating dose of the competitor 4A5-PE [29D left panel]
# Protocol: as §1, §2
# [8] = molecular target: T1, human ROR-1 endogenously expressed on …; test: cellular binning by flow cytometry on MDA-MB-468 cells; antibody titrated, stained with labelled secondary antibody, % Top MFI [29C middle panel]
# Protocol: as §1, §2
# [9] = molecular target: T1, human ROR-1 endogenously expressed on …; test: cellular binning by flow cytometry on MDA-MB-468 cells; antibody titrated, stained with labelled secondary antibody, % Top MFI [29D middle panel]
# Protocol: as §1, §2
# [10] = molecular target: T1, human ROR-1 endogenously expressed on …; test: cellular binning by flow cytometry on MDA-MB-468 cells; ATX-P-885 titrated first, then a saturating dose of the competitor Dy650-UC961; partial inhibition [29C middle panel]
# Protocol: as §1, §2
# [11] = molecular target: T2, Hu/Cy/Rh ROR1 - His; test: SPR (Carterra); cell 'Kinetics (KD)' of 4A5 in the row and the column heads of the binning table; no unit is printed on the sheet, the four other KD cells equal the KD (M) values of Table 2 for Hu/Cy/Rh ROR1 - His
binder,measurement,setting,value
B1,"percent receptor internalization relative to time zero (flow cytometry of antibody remaining on the surface, JeKo-1 and MDA-MB-468)",[1],≥ 75%
same,Kd,[2],4690 pM
same,koff,[2],0.00591 s⁻¹
same,kon,[2],1.26e+06 M⁻¹ s⁻¹
same,EC50 (read off the curve),[3],~20 pM
same,EC50 (read off the curve),[4],~100 pM
B2,EC50 (read off the curve),[5],~900 pM
same,EC50 (read off the curve),[6],~600 pM
same,IC50 (read off the curve),[7],~700 pM
B3,EC50 (read off the curve),[4],~300 pM
same,EC50 (read off the curve),[8],~3000 pM
same,EC50 (read off the curve),[9],~2000 pM
same,IC50 (read off the curve),[10],~3000 pM
B4,Kd,[11],2810 pM
